Experimental data from patent US9879058B2, “Use of compounds that selectively modulate astrocytic release of substances through hemichannels of connexins and pannexins, without influencing gap junctions, for the treatment of psychiatric disorders” (Universidad Andres Bello, priority 2012, dated 2018).
No end group written: not given here.

What was measured:
[1] = test system: hippocampal primary neuronal cultures; test: ATP and glutamate release in neuronal cultures; format: cell-based, rat; details: peptide 1 mM; neuronal cultures without astrocytes
Experimental: G.2. Neuronal cultures: Hippocampal neurons were obtained from hippocampus of E18 rats. Briefly, hippocampi were dissected as mentioned above for astrocyte cultures. Cells were seeded directly on poly-L-ornithine coated coverslips (1×10^5 cells/coverslip) in Neurobasal medium supplemented with penicillin (5 U/ml), streptomycin (5 μg/ml), B27 supplement and glutamax. Partial medium changes (¼) were done twice a week. H. Dye uptake: For single image visualization of dye uptake, astrocytes were bathed in recording solution [in mM: NaCl (148), KCl (5), CaCl2 (1.8), MgCl2 (1), glucose (5), HEPES (5), pH=7.4] containing 5 μM ethidium (Etd) (Sigma-Aldrich, St-Louis, Mo.), and fluorescence intensity was recorded for 10 min in selected cells (ROI, regions of interest). […] Metafluor software (version 6.2R5, Universal Imaging Co., Downingtown, Pa., USA) was used for off-line image analysis and fluorescence quantification.
I. Measurement of ATP and glutamate release induced by TAT-Cx43L2: Neurons were plated in multi well culture trays (10^6 cells/well/0.5 ml) and 48 h later were used for experiments. Extracellular ATP was measured by luciferin/luciferase bioluminescence assay kit (Sigma-Aldrich, St. Louis, Mo., USA). […]

[2] = target: T1, Cx43 gap junction channels (Rattus norvegicus, UniProt P08050); test: Lucifer yellow dye coupling in astroglial cultures; format: cell-based
T1 construct: endogenous in cells; host or cells: primary hippocampal astrocytes of newborn (PN1) rats
Experimental: F. Immunohistochemistry: Brain slices previously fixed in buffered 4% paraformaldehyde and maintained in 30% sucrose were mounted in gelatin coated glass slides. After rinsing with PBS, slices were blocked and permeabilized with 1% bovine serum albumin (BSA, Sigma-Aldrich), and 3% Triton X-100 in PBS for 1 h at room temperature. After rinsing again, sections were incubated overnight at 4° C. with the primary anti-Cx43 antibody (Sigma). Afterwards, sections were rinsed with PBS and incubated for 1 h at 37° C. with Alexa Fluor® 488-conjugated secondary antibody. To identify neurons and astrocytes, sections were incubated overnight at 4° C. with either monoclonal anti-MAP2 (M 4402, Sigma-Aldrich, St-Louis, Mo.) for neurons or polyclonal anti-GFAP (Sigma-Aldrich, St-Louis, Mo.) for astrocytes. Sections were washed and incubated for 1 h at 37° C. with Alexa Fluor® 568-conjugated secondary antibodies. Finally, slides were washed and permanently mounted using ProLong® (invitrogen). Staining specificity was assayed by incubation of sections in the absence of the primary antibody. Samples were examined using laser scanning confocal microscopy on a Fluoview FV1000 (Olympus). G. Primary Cell Cultures: G.1. Astrocyte cultures: Primary astrocyte cultures were prepared from hippocampus of newborn (PN1) rats. […]
J. Dye Coupling: Astrocytes plated on glass coverslips were bathed with recording medium (HCO3-free F-12 medium buffered with 10 mM HEPES, pH 7.2) and intercellular communication mediated by gap junctions was tested by evaluating the transfer to neighboring cells of Lucifer yellow (LY) (Sigma-Aldrich, St-Louis, Mo.) microinjected into one cell. […] The coupling index was calculated as the mean number of cells to which the dye spread. K. Data Analysis: Data were expressed as Mean+SD. Statistical differences were assessed by unpaired student's t-test (Mann-Whitney) and by one-way analysis of variance (ANOVA) for multiple comparisons, followed by Dunns post hoc test, and considered significant when p<0.05. p-values in the text are written as either <0.01% or <0.05%.

[3] = target: Cx43 gap junction channel (Homo sapiens, UniProt P17302); details: cited from earlier work
[4] = target: Cx43 hemichannels (Homo sapiens, UniProt P17302); details: cited from earlier work
Chain of Cx43 hemichannels (P17302 whole entry): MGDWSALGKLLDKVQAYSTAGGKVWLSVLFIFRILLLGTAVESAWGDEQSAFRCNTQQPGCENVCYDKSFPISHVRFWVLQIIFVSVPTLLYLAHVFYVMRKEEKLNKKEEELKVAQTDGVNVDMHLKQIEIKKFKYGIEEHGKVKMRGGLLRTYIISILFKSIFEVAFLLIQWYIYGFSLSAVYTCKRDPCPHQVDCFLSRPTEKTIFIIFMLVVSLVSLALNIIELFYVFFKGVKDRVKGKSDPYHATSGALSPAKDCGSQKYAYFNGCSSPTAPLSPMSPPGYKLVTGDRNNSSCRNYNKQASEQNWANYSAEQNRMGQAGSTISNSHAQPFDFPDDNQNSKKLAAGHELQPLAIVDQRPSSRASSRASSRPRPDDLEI

T1 sequence (P08050 whole entry): as the sequence (P17302 whole entry) above, with D124E, I164V, K243R, S251T, A253P, A257S, Q263P, S344A, L347V counted along it
Chain of Cx43 gap junction channel (P17302 whole entry): as the sequence (P17302 whole entry) above

**Q.** With “YGRKKRRQRRRDGANVDMHLKQIEIKKFKYGIEEHGK [TAT-Cx43L2, synthetic cell-permeable peptide corresponding to the Cx43L2 region (aa 119-144) of the cytoplasmic loop of Cx43]” as the sequence, how does the “ATP release in neuronal cultures” value [1] read?
**A.** The value was “did not affect”.

**Q.** And the “glutamate release in neuronal cultures” value [1]?
**A.** The value was “did not affect”.

**Q.** What about the “astroglial coupling (intracellular transfer of LY)” value ([2]; 1 mM, 10 min incubation, hippocampal astroglial cultures) of the same sequence?
**A.** The value was “did not affect astroglial coupling”.

**Q.** And the astrocyte coupling incidence ([2]; n=3)?
**A.** Its astrocyte coupling incidence is “had no effect on astrocyte coupling incidence”.

**Q.** What about the astrocyte coupling index ([2]; n=3) of the same sequence?
**A.** The astrocyte coupling index was “had no effects on astrocyte coupling index”.

**Q.** And the “effect on Cx43 gap junction channel communication, previously shown” value [3]?
**A.** Its value is “without affecting Cx43 gap junction channel communication”.

**Q.** And the “effect on Cx43 hemichannels, previously shown” value [4]?
**A.** Its value is “selectively block Cx43 hemichannels”.
